In test [1] the target is cytosolic fragment of MFN2 (modified, truncated human MFN2, residues 1–19 and 401–705 deleted) (human) (UniProt O95140). Nature of the test: ELISA; MFN2 coated on plates (0.1 µM); HEK293T lysate with DIAPH1-eCFP added in TBS pH 7.2, overnight 4 °C; anti-GFP-HRP; one site total and nonspecific binding fit. On the technique in general: ELISA stands for enzyme-linked immunosorbent assay.

The target is the same in test [2]. The test can be described thus: ELISA; MFN2 coated on plates (0.1 µM); HEK293T lysate with DIAPH1-eCFP added in TBS pH 6.2, overnight 4 °C; anti-GFP-HRP; one site total and nonspecific binding fit.
The target is the same in test [3]. Nature of the test: ELISA; as the pH 6.2 plate assay, with purified DID as competitor (1 µM in the results; wells treated with 2 µM DID in the methods).

DIAPH1-eCFP, sequence (O60610 whole entry): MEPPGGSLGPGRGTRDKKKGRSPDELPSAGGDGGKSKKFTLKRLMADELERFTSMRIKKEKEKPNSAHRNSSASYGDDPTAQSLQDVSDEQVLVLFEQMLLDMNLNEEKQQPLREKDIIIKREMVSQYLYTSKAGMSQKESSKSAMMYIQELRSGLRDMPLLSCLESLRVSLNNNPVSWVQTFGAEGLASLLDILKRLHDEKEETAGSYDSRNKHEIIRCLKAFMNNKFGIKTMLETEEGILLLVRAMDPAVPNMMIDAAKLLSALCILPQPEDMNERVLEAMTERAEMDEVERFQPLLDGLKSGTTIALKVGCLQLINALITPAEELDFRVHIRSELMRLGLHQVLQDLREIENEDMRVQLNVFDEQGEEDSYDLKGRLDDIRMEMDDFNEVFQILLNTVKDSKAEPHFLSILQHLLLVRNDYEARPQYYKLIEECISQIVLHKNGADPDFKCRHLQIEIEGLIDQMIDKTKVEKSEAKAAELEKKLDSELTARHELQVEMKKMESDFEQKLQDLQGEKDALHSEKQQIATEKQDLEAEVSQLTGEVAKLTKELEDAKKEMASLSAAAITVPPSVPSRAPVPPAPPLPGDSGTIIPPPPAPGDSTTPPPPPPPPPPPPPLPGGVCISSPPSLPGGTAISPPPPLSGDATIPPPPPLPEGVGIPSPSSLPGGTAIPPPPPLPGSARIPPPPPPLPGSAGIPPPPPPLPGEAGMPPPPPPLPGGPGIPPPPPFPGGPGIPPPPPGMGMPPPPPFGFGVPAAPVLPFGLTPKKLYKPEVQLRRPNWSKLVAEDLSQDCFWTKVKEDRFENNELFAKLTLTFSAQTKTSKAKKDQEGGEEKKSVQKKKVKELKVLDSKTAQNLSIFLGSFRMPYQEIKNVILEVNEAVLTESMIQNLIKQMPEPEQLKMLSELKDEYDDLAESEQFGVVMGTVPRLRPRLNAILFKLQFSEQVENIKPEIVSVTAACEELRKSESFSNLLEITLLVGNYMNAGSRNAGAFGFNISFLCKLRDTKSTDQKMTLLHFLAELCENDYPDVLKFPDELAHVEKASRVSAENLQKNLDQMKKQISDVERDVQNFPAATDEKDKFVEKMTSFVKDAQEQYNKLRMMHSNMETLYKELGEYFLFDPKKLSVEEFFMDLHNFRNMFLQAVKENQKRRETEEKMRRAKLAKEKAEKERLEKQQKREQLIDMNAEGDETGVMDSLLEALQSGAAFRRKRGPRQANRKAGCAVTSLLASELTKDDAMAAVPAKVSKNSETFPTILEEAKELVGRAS

For “DIAPH1-eCFP (from UniProt O60610 1-1272) (natural protein)”, the values for the Kd in test [1] and in test [2] were 0.7 nM and 0.01 nM, respectively. Besides, in test [3], the KD in the presence of 1 µM DID worked out at 0.22 nM.

Source of the values: PMC10616211.
